Experimental findings from patent publication US20150344570A1 (published 2015) are described below.

The target of assay [1] is T1, FcγRIa (human, UniProt P12314 16-292).
T1 construct: extracellular domain; Soluble extracellular domain with C-terminal His tag, used as analyte in Biacore; also called FcgRI; 1a; not shown: His tag attached to the C terminus
Briefly: SPR (Biacore); He/Con_1a divided by He/Con_2b (binding to FcγRIa against binding to FcγRIIb). The procedure: (§1) The heterodimerized antibodies He Abs in which one of the H chains was introduced with an alteration were assayed for their binding activities to each activating FcγR and inhibitory FcγR according to the method described in Example 4. […] The activating FcγRs in FIGS. 26, 27, 28, and 29 are FcγRIa, FcγRIIa (R), FcγRIIa (H), and FcγRIIIa, respectively.
(§2) Analysis of interaction between objective antibody and the FcγR was carried out using Biacore T100 (GE Healthcare). HBS-EP+ (GE Healthcare) was used as the running buffer, and the measurement temperature was set to 25° C. Chips produced by immobilizing the antigen peptide by the amine coupling method to a Series S Sencor Chip CM5 (GE Healthcare), or alternatively, chips produced by allowing preliminarily biotinylated antigen peptides to interact with and immobilize onto a Series S Sensor Chip SA (certified) (GE Healthcare) were used. Antibodies of interest were captured onto an antigen peptide-immobilized chip, and allowed to interact to each FcγR diluted with running buffer. To regenerate and repeatedly use the chip, the antibodies captured on the chip were washed off by reacting 10 mM glycine-HCl, pH 1.5.
T1 sequence (P12314 16-292): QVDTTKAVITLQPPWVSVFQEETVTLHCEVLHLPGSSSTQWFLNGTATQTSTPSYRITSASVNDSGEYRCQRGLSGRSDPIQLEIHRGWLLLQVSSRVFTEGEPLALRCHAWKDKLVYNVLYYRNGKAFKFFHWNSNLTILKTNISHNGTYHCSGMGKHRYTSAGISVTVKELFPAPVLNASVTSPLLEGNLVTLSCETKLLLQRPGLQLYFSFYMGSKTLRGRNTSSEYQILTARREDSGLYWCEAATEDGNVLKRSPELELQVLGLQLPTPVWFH

In the next assay the target is T2, FcγRIIb (human, UniProt P31994 43-217).
T2 construct: extracellular domain; Soluble extracellular domain with C-terminal His tag, used as analyte in Biacore; also called FcgRIIb; 2b; not shown: His tag attached to the C terminus
T2 sequence (looked up): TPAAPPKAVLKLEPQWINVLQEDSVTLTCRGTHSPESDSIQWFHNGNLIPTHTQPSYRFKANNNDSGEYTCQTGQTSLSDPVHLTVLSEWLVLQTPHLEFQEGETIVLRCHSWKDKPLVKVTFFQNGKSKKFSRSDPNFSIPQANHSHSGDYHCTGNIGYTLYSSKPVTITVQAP
Put plainly: SPR (Biacore), antibody captured, FcγR as analyte; relative to GpH7-A5/GpH7-B3/GpL16-k0 = 100. As to the method:
as §1, §2

Assay [2] addresses T1, FcγRIa. Described as above. The procedure: as §1, §2
The target of assay [3] is T3, FcγRIa (human, UniProt P12314 16-292).
T3 construct: extracellular domain; Soluble extracellular domain with C-terminal His tag, expressed in FreeStyle293 cells; analyte in Biacore; also called FcgRI; CD64; not shown: His tag attached to the C terminus
Put plainly: SPR (Biacore), antibody captured on antigen-peptide chip, FcγRIa as analyte; binding activity relative to control GpH7-B3/GpL16-k0 (HoCon Ab) x100. As to the method:
as §2
T3 sequence (P12314 16-292): as the sequence (P12314 16-292) above

B1: GpH7-A5/GpH7-B3 variant S239_09D/GpL16-k0 (antibody, human IgG1, kappa)
heavy 1: not shown
heavy 2: not shown
light: DIVMTQSPLSLPVTPGEPASISCQASESLVHSNRNTYLHWYLQKPGQSPQLLIYKVSNRFSGVPDRFSGSGSGTDFTLKISRVEAEDVGVYYCSQNTHVPPTFGQGTKVEIERTVAAPSVFIFPPSDEQLKSGTASVVCLLNNFYPREAKVQWKVDNALQSGNSQESVTEQDSKDSTYSLSSTLTLSKADYEKHKVYACEVTHQGLSSPVTKSFNRGEC
notes: Heterodimerized anti-glypican-3 IgG1; alteration in the GpH7-B3 chain only; also called He Ab
As to B1, the “He_1a/2b (Ia/IIb)” value with FcγRIa [1] came to 0.49 ratio. The He/Con_2b with FcγRIIb was 206 % of control (=100). Also, the He/Con_1a with FcγRIa [2] was 101 % of control (=100).

B2: GpH7-B3 variant Y300_01G/GpL16-k0 (homodimerized antibody, Ho Ab) (antibody, human IgG1, kappa)
heavy: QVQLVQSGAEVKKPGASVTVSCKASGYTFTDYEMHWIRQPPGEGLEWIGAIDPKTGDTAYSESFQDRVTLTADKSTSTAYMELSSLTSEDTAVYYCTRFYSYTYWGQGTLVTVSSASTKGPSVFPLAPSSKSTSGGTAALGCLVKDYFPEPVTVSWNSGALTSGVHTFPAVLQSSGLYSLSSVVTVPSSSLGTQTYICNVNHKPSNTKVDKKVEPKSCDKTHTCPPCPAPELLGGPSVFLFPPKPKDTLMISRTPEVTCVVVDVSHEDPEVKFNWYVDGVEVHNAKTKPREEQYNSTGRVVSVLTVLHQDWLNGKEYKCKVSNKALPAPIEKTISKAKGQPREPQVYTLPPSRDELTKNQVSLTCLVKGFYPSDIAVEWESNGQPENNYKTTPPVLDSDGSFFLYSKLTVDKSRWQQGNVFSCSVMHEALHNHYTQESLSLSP
light: DIVMTQSPLSLPVTPGEPASISCQASESLVHSNRNTYLHWYLQKPGQSPQLLIYKVSNRFSGVPDRFSGSGSGTDFTLKISRVEAEDVGVYYCSQNTHVPPTFGQGTKVEIERTVAAPSVFIFPPSDEQLKSGTASVVCLLNNFYPREAKVQWKVDNALQSGNSQESVTEQDSKDSTYSLSSTLTLSKADYEKHKVYACEVTHQGLSSPVTKSFNRGEC
notes: Anti-glypican-3 IgG1 (G1d with K439E); same alteration in both H chains
With B2, the Ho/Con_1a with FcγRIa [3] is 109 % of control (=100).

B3: GpH7-B3 variant T335_18N/GpL16-k0 (homodimerized antibody, Ho Ab) (antibody, human IgG1, kappa)
heavy: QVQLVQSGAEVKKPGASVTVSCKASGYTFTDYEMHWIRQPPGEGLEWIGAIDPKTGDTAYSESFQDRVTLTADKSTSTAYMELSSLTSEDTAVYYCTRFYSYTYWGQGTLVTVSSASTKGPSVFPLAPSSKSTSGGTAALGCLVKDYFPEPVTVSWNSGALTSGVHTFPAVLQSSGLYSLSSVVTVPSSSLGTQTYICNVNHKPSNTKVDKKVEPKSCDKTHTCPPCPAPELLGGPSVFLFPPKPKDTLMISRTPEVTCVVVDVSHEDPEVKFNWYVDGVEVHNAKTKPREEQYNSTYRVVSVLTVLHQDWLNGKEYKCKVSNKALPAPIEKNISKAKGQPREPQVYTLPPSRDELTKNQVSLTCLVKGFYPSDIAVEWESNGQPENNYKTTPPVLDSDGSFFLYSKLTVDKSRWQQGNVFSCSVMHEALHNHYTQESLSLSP
light: DIVMTQSPLSLPVTPGEPASISCQASESLVHSNRNTYLHWYLQKPGQSPQLLIYKVSNRFSGVPDRFSGSGSGTDFTLKISRVEAEDVGVYYCSQNTHVPPTFGQGTKVEIERTVAAPSVFIFPPSDEQLKSGTASVVCLLNNFYPREAKVQWKVDNALQSGNSQESVTEQDSKDSTYSLSSTLTLSKADYEKHKVYACEVTHQGLSSPVTKSFNRGEC
notes: as for B2
For B3, in the assay with FcγRIa [3], the Ho/Con_1a was 102 % of control (=100).

B4: GpH7-B3 variant Y296_14T/GpL16-k0 (homodimerized antibody, Ho Ab) (antibody, human IgG1, kappa)
heavy: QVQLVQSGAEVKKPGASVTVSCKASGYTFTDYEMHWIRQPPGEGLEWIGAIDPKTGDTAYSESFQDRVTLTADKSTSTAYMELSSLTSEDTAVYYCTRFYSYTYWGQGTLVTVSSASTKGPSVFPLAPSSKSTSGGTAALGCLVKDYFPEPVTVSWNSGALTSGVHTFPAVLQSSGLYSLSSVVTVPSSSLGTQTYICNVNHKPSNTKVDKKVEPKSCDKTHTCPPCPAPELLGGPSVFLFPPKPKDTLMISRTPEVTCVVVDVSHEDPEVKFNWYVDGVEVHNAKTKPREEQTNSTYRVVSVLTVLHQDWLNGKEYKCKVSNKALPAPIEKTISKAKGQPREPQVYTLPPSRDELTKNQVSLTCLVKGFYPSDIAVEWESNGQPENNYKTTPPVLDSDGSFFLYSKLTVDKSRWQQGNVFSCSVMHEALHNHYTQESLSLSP
light: DIVMTQSPLSLPVTPGEPASISCQASESLVHSNRNTYLHWYLQKPGQSPQLLIYKVSNRFSGVPDRFSGSGSGTDFTLKISRVEAEDVGVYYCSQNTHVPPTFGQGTKVEIERTVAAPSVFIFPPSDEQLKSGTASVVCLLNNFYPREAKVQWKVDNALQSGNSQESVTEQDSKDSTYSLSSTLTLSKADYEKHKVYACEVTHQGLSSPVTKSFNRGEC
notes: as for B2
Consider B4, for which the Ho/Con_1a with FcγRIa [3] is 105 % of control (=100).

B5: GpH7-B3 variant Y296_16H/GpL16-k0 (homodimerized antibody, Ho Ab) (antibody, human IgG1, kappa)
heavy: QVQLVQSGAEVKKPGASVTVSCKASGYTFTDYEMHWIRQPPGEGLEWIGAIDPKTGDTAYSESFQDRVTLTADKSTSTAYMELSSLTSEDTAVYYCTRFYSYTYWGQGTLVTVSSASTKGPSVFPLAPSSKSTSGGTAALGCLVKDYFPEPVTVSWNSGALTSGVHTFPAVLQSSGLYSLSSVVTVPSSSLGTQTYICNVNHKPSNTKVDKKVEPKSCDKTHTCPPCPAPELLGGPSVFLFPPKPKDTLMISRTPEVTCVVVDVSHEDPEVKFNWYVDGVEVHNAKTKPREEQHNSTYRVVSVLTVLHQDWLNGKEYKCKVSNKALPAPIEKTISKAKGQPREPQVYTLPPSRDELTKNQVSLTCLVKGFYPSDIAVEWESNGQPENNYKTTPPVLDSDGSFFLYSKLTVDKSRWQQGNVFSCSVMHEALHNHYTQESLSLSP
light: DIVMTQSPLSLPVTPGEPASISCQASESLVHSNRNTYLHWYLQKPGQSPQLLIYKVSNRFSGVPDRFSGSGSGTDFTLKISRVEAEDVGVYYCSQNTHVPPTFGQGTKVEIERTVAAPSVFIFPPSDEQLKSGTASVVCLLNNFYPREAKVQWKVDNALQSGNSQESVTEQDSKDSTYSLSSTLTLSKADYEKHKVYACEVTHQGLSSPVTKSFNRGEC
notes: as for B2
Take B5: the Ho/Con_1a with FcγRIa [3] is 105 % of control (=100).

B6: GpH7-B3 variant Y296_10E/GpL16-k0 (homodimerized antibody, Ho Ab) (antibody, human IgG1, kappa)
heavy: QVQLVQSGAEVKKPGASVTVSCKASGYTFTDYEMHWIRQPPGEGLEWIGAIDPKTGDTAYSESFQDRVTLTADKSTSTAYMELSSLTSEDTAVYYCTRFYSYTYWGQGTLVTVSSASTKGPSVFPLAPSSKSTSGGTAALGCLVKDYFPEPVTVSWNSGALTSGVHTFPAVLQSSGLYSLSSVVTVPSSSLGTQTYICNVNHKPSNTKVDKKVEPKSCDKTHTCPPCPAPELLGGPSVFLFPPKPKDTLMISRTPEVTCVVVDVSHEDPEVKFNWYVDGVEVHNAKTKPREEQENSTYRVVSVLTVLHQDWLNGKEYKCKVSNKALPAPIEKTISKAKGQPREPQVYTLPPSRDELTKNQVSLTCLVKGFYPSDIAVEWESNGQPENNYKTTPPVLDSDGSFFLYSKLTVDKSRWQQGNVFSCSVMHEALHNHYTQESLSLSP
light: DIVMTQSPLSLPVTPGEPASISCQASESLVHSNRNTYLHWYLQKPGQSPQLLIYKVSNRFSGVPDRFSGSGSGTDFTLKISRVEAEDVGVYYCSQNTHVPPTFGQGTKVEIERTVAAPSVFIFPPSDEQLKSGTASVVCLLNNFYPREAKVQWKVDNALQSGNSQESVTEQDSKDSTYSLSSTLTLSKADYEKHKVYACEVTHQGLSSPVTKSFNRGEC
notes: as for B2
As to B6, in the assay with FcγRIa [3], the Ho/Con_1a was 106 % of control (=100).

B7: GpH7-B3 variant T335_19Q/GpL16-k0 (homodimerized antibody, Ho Ab) (antibody, human IgG1, kappa)
heavy: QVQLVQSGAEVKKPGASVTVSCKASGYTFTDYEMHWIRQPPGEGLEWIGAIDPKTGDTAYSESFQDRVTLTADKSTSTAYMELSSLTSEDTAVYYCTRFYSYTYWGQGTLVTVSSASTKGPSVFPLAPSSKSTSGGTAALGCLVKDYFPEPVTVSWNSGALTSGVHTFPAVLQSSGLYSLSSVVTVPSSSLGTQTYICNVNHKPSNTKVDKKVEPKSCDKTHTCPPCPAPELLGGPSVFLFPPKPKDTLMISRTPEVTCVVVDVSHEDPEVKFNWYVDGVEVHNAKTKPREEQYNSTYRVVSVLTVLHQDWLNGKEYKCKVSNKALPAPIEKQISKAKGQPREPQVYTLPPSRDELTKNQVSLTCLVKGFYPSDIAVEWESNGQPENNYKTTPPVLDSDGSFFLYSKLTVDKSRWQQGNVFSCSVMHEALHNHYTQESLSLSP
light: DIVMTQSPLSLPVTPGEPASISCQASESLVHSNRNTYLHWYLQKPGQSPQLLIYKVSNRFSGVPDRFSGSGSGTDFTLKISRVEAEDVGVYYCSQNTHVPPTFGQGTKVEIERTVAAPSVFIFPPSDEQLKSGTASVVCLLNNFYPREAKVQWKVDNALQSGNSQESVTEQDSKDSTYSLSSTLTLSKADYEKHKVYACEVTHQGLSSPVTKSFNRGEC
notes: as for B2
Take B7: the Ho/Con_1a in the assay with FcγRIa [3] is 105 % of control (=100).

B8: GpH7-B3 variant Y296_12R/GpL16-k0 (homodimerized antibody, Ho Ab) (antibody, human IgG1, kappa)
heavy: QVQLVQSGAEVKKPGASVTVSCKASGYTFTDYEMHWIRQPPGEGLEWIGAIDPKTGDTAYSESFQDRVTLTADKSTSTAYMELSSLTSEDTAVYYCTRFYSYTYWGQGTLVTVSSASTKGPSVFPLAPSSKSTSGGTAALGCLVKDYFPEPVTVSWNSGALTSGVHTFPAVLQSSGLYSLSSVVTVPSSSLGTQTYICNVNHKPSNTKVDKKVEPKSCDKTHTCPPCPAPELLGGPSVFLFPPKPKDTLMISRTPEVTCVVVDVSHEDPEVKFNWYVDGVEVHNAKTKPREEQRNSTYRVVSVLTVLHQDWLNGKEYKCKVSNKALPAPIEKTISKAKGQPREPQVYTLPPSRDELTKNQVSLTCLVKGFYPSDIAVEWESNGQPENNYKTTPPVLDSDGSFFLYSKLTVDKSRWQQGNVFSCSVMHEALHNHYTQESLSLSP
light: DIVMTQSPLSLPVTPGEPASISCQASESLVHSNRNTYLHWYLQKPGQSPQLLIYKVSNRFSGVPDRFSGSGSGTDFTLKISRVEAEDVGVYYCSQNTHVPPTFGQGTKVEIERTVAAPSVFIFPPSDEQLKSGTASVVCLLNNFYPREAKVQWKVDNALQSGNSQESVTEQDSKDSTYSLSSTLTLSKADYEKHKVYACEVTHQGLSSPVTKSFNRGEC
notes: as for B2
With B8, the Ho/Con_1a with FcγRIa [3] was 103 % of control (=100).
